Reference: patent US20040018571A1

Target: T1, recombinant secreted soluble PSCA with a C-terminal 6xHis and MYC tag (human) (UniProt O43653)
T1 sequence (looked up): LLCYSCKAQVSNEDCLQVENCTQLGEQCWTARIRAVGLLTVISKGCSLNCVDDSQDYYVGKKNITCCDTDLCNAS
Assay: SPR (BIAcore), recombinant His/MYC-tagged PSCA immobilized at low density (30 RU), mAb in solution

B1: anti-PSCA monoclonal antibody 1G8 (ATCC No. HB-12612) (antibody, from another filing, mouse IgG1, V domains shown)
VH: EVQLQQSGAELVRSGASVKLSCTASGFNIKDYYIHWVNQRPDQGLEWIGWIDPENGDTEFVPKFQGKATMTADIFSNTAYLHLSSLTSEDTAVYYCKTGGFWGQGTLVTVSA
VL: QVVLTQSPAIMSASPGEKVTMACSASSSVRFIHWYQQKSGTSPKRWIYDTSKLASGVPTRFSGSGSGTSYSLTISTMEAEDAATYYCQQWSSSPFTFGSGTKLIIK
  Kd: 1 nM
  kon: 168000 M⁻¹ s⁻¹
